Source: patent US20140087995A1 (published 2014)
Numbered stars: 1 amine (or outer) side, 2 acyl side, 3 side chain; on linkers, the order of the positions; unused ones are H or OH. Bridge positions count the residues as written; N and C are the ends. Side chains are listed from the residue outwards. Ends that are not written are not given here. * marks the point of attachment. C20 diacid = O=C(O)CCCCCCCCCCCCCCCCCCC(=O)*; γGlu = O=C(O)[C@H](CCC(=O)[*:2])N[*:1]

B1: N^ε1-[(4S)-4-carboxy-4-[[(4S)-4-carboxy-4-(19-carboxynonadecanoylamino)butanoyl]amino]butanoyl]-[Glu14,Arg17,Pro21,Pro27,Pro34,Arg35]-h-amylin (peptide)
peptide: K([γGlu-γGlu-C20 diacid])CNTATCATQRLAEFLRHSSPNFGAIPSSTNVGPRTY-NH2
modifications: disulfide 2-7; N-terminus assumed
SMILES: CC[C@H](C)[C@H](NC(=O)[C@H](C)NC(=O)CNC(=O)[C@H](Cc1ccccc1)NC(=O)[C@H](CC(N)=O)NC(=O)[C@@H]1CCCN1C(=O)[C@H](CO)NC(=O)[C@H](CO)NC(=O)[C@H](Cc1c[nH]cn1)NC(=O)[C@H](CCCNC(=N)N)NC(=O)[C@H](CC(C)C)NC(=O)[C@H](Cc1ccccc1)NC(=O)[C@H](CCC(=O)O)NC(=O)[C@H](C)NC(=O)[C@H](CC(C)C)NC(=O)[C@H](CCCNC(=N)N)NC(=O)[C@H](CCC(N)=O)NC(=O)[C@@H](NC(=O)[C@H](C)NC(=O)[C@@H]1CSSC[C@H](NC(=O)[C@@H](N)CCCCNC(=O)CC[C@H](NC(=O)CC[C@H](NC(=O)CCCCCCCCCCCCCCCCCCC(=O)O)C(=O)O)C(=O)O)C(=O)N[C@@H](CC(N)=O)C(=O)N[C@@H]([C@@H](C)O)C(=O)N[C@@H](C)C(=O)N[C@@H]([C@@H](C)O)C(=O)N1)[C@@H](C)O)C(=O)N1CCC[C@H]1C(=O)N[C@@H](CO)C(=O)N[C@@H](CO)C(=O)N[C@H](C(=O)N[C@@H](CC(N)=O)C(=O)N[C@H](C(=O)NCC(=O)N1CCC[C@H]1C(=O)N[C@@H](CCCNC(=N)N)C(=O)N[C@H](C(=O)N[C@@H](Cc1ccc(O)cc1)C(N)=O)[C@@H](C)O)C(C)C)[C@@H](C)O
notes: synthetic peptide amide; also called compound 110
B2: N^ε1-[(4S)-4-carboxy-4-[[(4S)-4-carboxy-4-(19-carboxynonadecanoylamino)butanoyl]amino]butanoyl]-[Glu14,Arg17,Pro21,Pro27,Pro34,Phe37]-h-amylin (peptide)
peptide: K([γGlu-γGlu-C20 diacid])CNTATCATQRLAEFLRHSSPNFGAIPSSTNVGPNTF-NH2
modifications: disulfide 2-7; N-terminus assumed
SMILES: CC[C@H](C)[C@H](NC(=O)[C@H](C)NC(=O)CNC(=O)[C@H](Cc1ccccc1)NC(=O)[C@H](CC(N)=O)NC(=O)[C@@H]1CCCN1C(=O)[C@H](CO)NC(=O)[C@H](CO)NC(=O)[C@H](Cc1c[nH]cn1)NC(=O)[C@H](CCCNC(=N)N)NC(=O)[C@H](CC(C)C)NC(=O)[C@H](Cc1ccccc1)NC(=O)[C@H](CCC(=O)O)NC(=O)[C@H](C)NC(=O)[C@H](CC(C)C)NC(=O)[C@H](CCCNC(=N)N)NC(=O)[C@H](CCC(N)=O)NC(=O)[C@@H](NC(=O)[C@H](C)NC(=O)[C@@H]1CSSC[C@H](NC(=O)[C@@H](N)CCCCNC(=O)CC[C@H](NC(=O)CC[C@H](NC(=O)CCCCCCCCCCCCCCCCCCC(=O)O)C(=O)O)C(=O)O)C(=O)N[C@@H](CC(N)=O)C(=O)N[C@@H]([C@@H](C)O)C(=O)N[C@@H](C)C(=O)N[C@@H]([C@@H](C)O)C(=O)N1)[C@@H](C)O)C(=O)N1CCC[C@H]1C(=O)N[C@@H](CO)C(=O)N[C@@H](CO)C(=O)N[C@H](C(=O)N[C@@H](CC(N)=O)C(=O)N[C@H](C(=O)NCC(=O)N1CCC[C@H]1C(=O)N[C@@H](CC(N)=O)C(=O)N[C@H](C(=O)N[C@@H](Cc1ccccc1)C(N)=O)[C@@H](C)O)C(C)C)[C@@H](C)O
notes: synthetic peptide amide
B3: N^ε1-[(4S)-4-carboxy-4-[[(4S)-4-carboxy-4-(19-carboxynonadecanoylamino)butanoyl]amino]butanoyl]-[Glu14,Arg17,Pro23,Pro34,Glu35]-h-amylin (peptide)
peptide: K([γGlu-γGlu-C20 diacid])CNTATCATQRLAEFLRHSSNNPGAILSSTNVGPETY-NH2
modifications: disulfide 2-7; N-terminus assumed
SMILES: CC[C@H](C)[C@H](NC(=O)[C@H](C)NC(=O)CNC(=O)[C@@H]1CCCN1C(=O)[C@H](CC(N)=O)NC(=O)[C@H](CC(N)=O)NC(=O)[C@H](CO)NC(=O)[C@H](CO)NC(=O)[C@H](Cc1c[nH]cn1)NC(=O)[C@H](CCCNC(=N)N)NC(=O)[C@H](CC(C)C)NC(=O)[C@H](Cc1ccccc1)NC(=O)[C@H](CCC(=O)O)NC(=O)[C@H](C)NC(=O)[C@H](CC(C)C)NC(=O)[C@H](CCCNC(=N)N)NC(=O)[C@H](CCC(N)=O)NC(=O)[C@@H](NC(=O)[C@H](C)NC(=O)[C@@H]1CSSC[C@H](NC(=O)[C@@H](N)CCCCNC(=O)CC[C@H](NC(=O)CC[C@H](NC(=O)CCCCCCCCCCCCCCCCCCC(=O)O)C(=O)O)C(=O)O)C(=O)N[C@@H](CC(N)=O)C(=O)N[C@@H]([C@@H](C)O)C(=O)N[C@@H](C)C(=O)N[C@@H]([C@@H](C)O)C(=O)N1)[C@@H](C)O)C(=O)N[C@@H](CC(C)C)C(=O)N[C@@H](CO)C(=O)N[C@@H](CO)C(=O)N[C@H](C(=O)N[C@@H](CC(N)=O)C(=O)N[C@H](C(=O)NCC(=O)N1CCC[C@H]1C(=O)N[C@@H](CCC(=O)O)C(=O)N[C@H](C(=O)N[C@@H](Cc1ccc(O)cc1)C(N)=O)[C@@H](C)O)C(C)C)[C@@H](C)O
notes: synthetic peptide amide
B4: N^ε1-[(4S)-4-carboxy-4-[[(4S)-4-carboxy-4-(19-carboxynonadecanoylamino)butanoyl]amino]butanoyl]-[Ser14,Arg17,Pro21,Pro27,Pro34,Glu35]-h-amylin (peptide)
peptide: K([γGlu-γGlu-C20 diacid])CNTATCATQRLASFLRHSSPNFGAIPSSTNVGPETY-NH2
modifications: disulfide 2-7; N-terminus assumed
SMILES: CC[C@H](C)[C@H](NC(=O)[C@H](C)NC(=O)CNC(=O)[C@H](Cc1ccccc1)NC(=O)[C@H](CC(N)=O)NC(=O)[C@@H]1CCCN1C(=O)[C@H](CO)NC(=O)[C@H](CO)NC(=O)[C@H](Cc1c[nH]cn1)NC(=O)[C@H](CCCNC(=N)N)NC(=O)[C@H](CC(C)C)NC(=O)[C@H](Cc1ccccc1)NC(=O)[C@H](CO)NC(=O)[C@H](C)NC(=O)[C@H](CC(C)C)NC(=O)[C@H](CCCNC(=N)N)NC(=O)[C@H](CCC(N)=O)NC(=O)[C@@H](NC(=O)[C@H](C)NC(=O)[C@@H]1CSSC[C@H](NC(=O)[C@@H](N)CCCCNC(=O)CC[C@H](NC(=O)CC[C@H](NC(=O)CCCCCCCCCCCCCCCCCCC(=O)O)C(=O)O)C(=O)O)C(=O)N[C@@H](CC(N)=O)C(=O)N[C@@H]([C@@H](C)O)C(=O)N[C@@H](C)C(=O)N[C@@H]([C@@H](C)O)C(=O)N1)[C@@H](C)O)C(=O)N1CCC[C@H]1C(=O)N[C@@H](CO)C(=O)N[C@@H](CO)C(=O)N[C@H](C(=O)N[C@@H](CC(N)=O)C(=O)N[C@H](C(=O)NCC(=O)N1CCC[C@H]1C(=O)N[C@@H](CCC(=O)O)C(=O)N[C@H](C(=O)N[C@@H](Cc1ccc(O)cc1)C(N)=O)[C@@H](C)O)C(C)C)[C@@H](C)O
notes: synthetic peptide amide; also called compound 120

These binders were tested against T1, human calcitonin receptor (human, UniProt P30988 25-474) (assay: cell-based or functional assay).
T1 sequence (looked up): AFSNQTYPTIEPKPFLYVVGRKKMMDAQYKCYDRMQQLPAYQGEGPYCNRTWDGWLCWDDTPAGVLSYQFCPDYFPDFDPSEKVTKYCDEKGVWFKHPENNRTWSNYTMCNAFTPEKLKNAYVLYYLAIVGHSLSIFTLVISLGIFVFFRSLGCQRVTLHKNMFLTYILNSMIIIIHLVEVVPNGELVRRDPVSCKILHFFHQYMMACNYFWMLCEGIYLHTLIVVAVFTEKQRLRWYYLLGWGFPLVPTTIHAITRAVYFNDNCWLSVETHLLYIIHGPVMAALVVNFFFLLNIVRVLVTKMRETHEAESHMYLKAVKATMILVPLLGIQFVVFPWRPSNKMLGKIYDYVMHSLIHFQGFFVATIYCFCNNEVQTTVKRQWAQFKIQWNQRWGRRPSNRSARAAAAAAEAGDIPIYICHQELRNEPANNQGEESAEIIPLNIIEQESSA
For B1, the “hCTR funct. EC50 (pM)” value was 8160 pM. In the case of K([γGlu-γGlu-C20 diacid])CNTATCATQRLAEFLRHSSPNFGAIPSSTNVGPHTY-NH2 (disulfide 2-7 (inferred), synthetic peptide amide), the “hCTR funct. EC50 (pM)” value is reported as 2830 pM. B2 was tested, and the “hCTR funct. EC50 (pM)” value was 2140 pM. For K([γGlu-γGlu-C20 diacid])CNTATCATQRLAEFLRHSSPNFGAILSSTPVGPETY-NH2 (disulfide 2-7, synthetic peptide amide), the “hCTR funct. EC50 (pM)” value was 1280 pM. For B3, the “hCTR funct. EC50 (pM)” value was 89600 pM. B4 was tested, and the “hCTR funct. EC50 (pM)” value was 887 pM.
